Assay results as given in patent US20110091971A1, “Differentiation of Pluripotent Stem Cells” (priority 2008, published 2011).
Substitutions are numbered along the chain they refer to.

B1: ACTN18: activin A variant peptide, SEQ ID 19 (protein)
chain: GLECDGKVNYCCKKQNFVSFKDIGWNDWIIAPSGYHANKCSGKCPSHIAGTSGSSLSFHSTVINHYRMRGHSPFSDMGACCIPTKLRPMSMLYYDDGQNIIKKDIQNMIVEECGCS
B2: ACTN23: activin A variant peptide, SEQ ID 24 (protein)
chain: B1 chain with N16D, S41D, A79S
B3: ACTN20: activin A variant peptide, SEQ ID 21 (protein)
chain: B1 chain with Y10L, S41G, K43L, S75A, D76Q
B4: ACTN22: activin A variant peptide, SEQ ID 23 (protein)
chain: B1 chain with Y10L, N16D, K39R, S41D, K43L, S75A, D76L
B5: ACTN21: activin A variant peptide, SEQ ID 22 (protein)
chain: B1 chain with N16W, S75A, D76N, A79S
B6: ACTN32: activin A variant peptide, SEQ ID 33 (protein)
chain: B1 chain with Y10L, N16D, K39R, S41G, D76N, A79S
B7: ACTN28: activin A variant peptide, SEQ ID 29 (protein)
chain: B1 chain with N16L, K39H, S75A, D76N, A79S
B8: ACTN19: activin A variant peptide, SEQ ID 20 (protein)
chain: B1 chain with Y10L, N16D, S41G, S75A, D76N, A79S

Key:
Format in all cases: cell-based
[1] = test system: Human Embryonic Stem Cells (H1 hESC line); experiment: FACS analysis of CXCR4 at conclusion of first step of step-wise differentiation (Example 12); details: 100 ng/ml peptide, end of first step (three days), FIG. 23A, 23B
Procedure: (§1) Preparation of Cells for Assay: Stock Cultures of Human Embryonic Stem Cells (H1 hESC line) were maintained in an undifferentiated, pluripotent state on growth factor-reduced MATRIGEL™-coated dishes in MEF conditioned medium supplemented with bFGF (PeproTech; Cat #100-18B) with passage on average every, four days. Passage was performed by exposing cell cultures to a solution of 1 mg/ml collagenase (Invitrogen, Cat #17104-019) for five to seven minutes at 37° C. followed by rinsing the monolayer with MEF conditioned medium and gentle scraping to recover cell clusters. Clusters were centrifuged at low speed to collect a cell pellet and remove residual collagenase. Cell clusters were split at a 1:3 or 1:4 ratio for routine maintenance culture or a 1:1 ratio for immediate assay. All human ES cell lines were maintained at passage numbers less than 50 and routinely evaluated for normal karyotypic phenotype and for absence of mycoplasma contamination.
(§2) Cell clusters were evenly resuspended in MEF conditioned medium supplemented with 8 ng/ml bFGF and seeded onto growth factor-reduced MATRIGEL™-coated 24-well, black wall culture plates (Arctic White; Cat #AWLS-303012) in volumes of 0.5 ml/well. Daily feeding was conducted by aspirating spent culture medium from each well and replacing with an equal volume of fresh medium. Plates were maintained at 37° C., 5% CO2 throughout the duration of assay.
(§3) Assay: The assay was initiated by aspirating culture medium from each well and adding back an aliquot (0.5 ml) of test medium. Test conditions for the first step of differentiation were conducted over a three-day period, feeding daily by aspirating and replacing the medium from each well with fresh test medium. Concentrated supernatants of the ACTN peptides were evaluated for protein concentration using a DuoSet ELISA kit for human activin A (R&D Systems; Cat #DY338), as previously described in Example 11. On the first day of assay, ACTN peptides were diluted to a final concentration of 100 ng/ml in RPMI 1640 medium (Invitrogen; Cat #: 22400) with 2% Albumin Bovine Fraction V, Fatty Acid Free (FAF BSA) (MP Biomedicals, Inc; Cat #152401), 8 ng/ml bFGF, and 20 ng/ml Wnt3a (R&D Systems; Cat #1324-WN/CF) and then added to the assay wells. On the second and third day of assay, ACTN peptides were diluted into RPMI 1640 medium supplemented with 2% fatty acid free BSA and 8 ng/ml bFGF, without any Wnt3a and then added to the assay wells. A positive control sample included a commercial source of activin A (PeproTech; Cat #12 0-14) diluted in culture medium with growth factors as indicated. At the conclusion of three days culture, cells from some wells were harvested for analysis by flow cytometry to evaluate levels of CXCR4, a marker of definitive endoderm formation. […]

[2] = test system: H1 or H9 human embryonic stem cells; experiment: Activin A bioassay: differentiation of human embryonic stem cells to definitive endoderm, cell number and SOX17 intensity by high content analysis (96-well, four days); details: for Sox 17 Intensity % of control: control = R&D Sys Activin A 100 ng/ml on same plate;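 for Cell Number average: Raw total cell count per well from high content imaging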;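 for Sox 17 Intensity average: total fluorescence of the cell multiplied by cell area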
Procedure, shortened: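 Read-out was cell count and integrated SOX17 immunofluorescence by high-content imaging, with each well divided by the mean of the 100 ng/ml activin A control. Over the four-day culture, test samples were given in DMEM:F12 with 0.5% FCS plus 20 ng/ml Wnt3a for the first two days and in 2% FCS alone for the last two. Cells were H1 or H9 hESC clusters grown on Matrigel.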

[3] = test system: Human Embryonic Stem Cells (H1 hESC line); experiment: High content analysis of cell number and SOX17 expression at end of first step of differentiation (Example 12); details: 100 ng/ml peptide, FIG. 23C-F
Procedure: as §1, §2, §3

[4] = supernatant concentration 1x, assay dilution 1:20
[5] = supernatant concentration 10x, assay dilution 1:20
[6] = supernatant concentration 10x, assay dilution 1:40

Row | Molecule | CXCR4 expression (FACS) [1] | SOX17 expression ([2]; Wnt3a omitted from treatment on days 1 and 2) | Optimal activin A effects for induction of SOX17 expression (concentration range) ([2]; commercial activin A (Peprotech), 20 ng/ml Wnt3a on days 1 and 2, four days) [ng/mL] | EC50 for induction of SOX17 expression ([2]; commercial activin A (Peprotech), two-fold dilution curve, 20 ng/ml Wnt3a on days 1 and 2, four days) [µg/mL] | cell number and SOX17 expression (high content analysis) [3] | Cell Number average [2, 4] | Sox 17 Intensity average [2, 4] | Sox 17 Intensity % of control [2, 4] [%] | Cell Number average [2, 5] | Sox 17 Intensity average [2, 5] | Sox 17 Intensity % of control [2, 5] [%] | Cell Number average [2, 6] | Sox 17 Intensity average [2, 6] | Sox 17 Intensity % of control [2, 6] [%]
1 | activin A [reference compound] | equivalent and robust CXCR4 expression | failed to produce measurable SOX17 expression | 100 to 200 | 0.03 to 0.05 | equivalent results | – | – | – | – | – | – | – | – | –
2 | B1 | – | – | – | – | – | 6078 | 5.68E+05 | 2.2 | 9676 | 1.22E+06 | 4.7 | 11683 | 2.22E+05 | 0.9
3 | B2 | – | – | – | – | – | 6831 | 2.89E+04 | 0.1 | 10482 | 1.63E+05 | 0.6 | 8184 | 1.47E+05 | 0.5
4 | B3 | – | – | – | – | – | 9000 | 1.26E+04 | 0.0 | 10217 | 1.52E+05 | 0.5 | 12284 | 9.03E+03 | 0.0
5 | B4 | – | – | – | – | – | 9909 | 1.32E+05 | 0.4 | 8745 | 3.69E+05 | 1.3 | 9568 | 3.76E+05 | 1.3
6 | B5 | – | – | – | – | – | 8072 | 6.33E+03 | 0.0 | 11102 | 4.89E+05 | 1.7 | 10458 | 8.77E+04 | 0.3
7 | B6 | – | – | – | – | – | 16166 | 9.11E+04 | 0.3 | 14330 | 3.97E+04 | 0.1 | 11619 | 3.43E+05 | 1.2
8 | B7 | – | – | – | – | – | 7411 | 3.70E+06 | 12.6 | 12587 | 4.87E+07 | 165.7 | 10116 | 3.57E+07 | 121.5
9 | B8 | – | – | – | – | – | 11017 | 4.09E+04 | 0.1 | 11587 | 3.96E+04 | 0.1 | 12549 | 4.86E+03 | 0.0
